# Source: the nanobody polyreactivity screen of Harvey et al. (2022)
# Test: yeast display, Sf9 membrane polyspecificity reagent, FACS + sequencing; frameworks hold sequencing errors
# In short: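 A synthetic nanobody library was expressed on Saccharomyces cerevisiae BJ5465 by galactose induction for 36–48 hours. The library was stained for 1 hour at 4 °C with 10% biotinylated, detergent-solubilized Sf9 membrane reagent and enriched with streptavidin microbeads before FACS. Low and high (top ~1%) gates were set on anti-HA fluorescence for expression and streptavidin fluorescence for reagent binding, and each polyreactivity label reflects the gate of origin.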
row,Sequence,polyreactivity (PSR sort gate)
1,QVQLVESGGGLVQAGGSLRLSCAAYGSTFYANAMGWYRQAPGKERELVAAISSGGSTYYADSVKGRFTISRYNAKNTVYLQMNSLKPEDTAVYYCAKPFYSYRYGFGYWGQGTQVTVSS,low polyreactivity
2,QVQLVESGGGLVQAGGSLRLSCAASGFTFAYYAMGWYRQAPGKERELVASITSGGSTYYADSVKGRFTISRDNAKNTVYLQMNSLKPEATAVYYCAARVRSELIKRYYWGQGTQVTVSS,high polyreactivity
3,QVQLEESGGGLVQAGGSLRLSCAASGITFLRNAMGWYSQAPGKERELVAAISRSGGRTYYADSVKGRFTISRDNAQNTVYLQMNSLKPEDTAVYYCAVVTQFGDGYYWGQGTQVTVSS,high polyreactivity
4,QVQLVESGGGLVQAGGSLRLSCAAYGFTFVDFVMGWSIQAPGKERELVAAITTSGTRTSYADSVKGRFTISRDNAKNTVYLQLNSLKPEDTAVYYCNADHKSIYPKYRGRFYYWGQGTQVTVSS,high polyreactivity
5,QVQLVESGGGLVQAGGSLRISCAASGFTFYIYAMGWYRQAPGKERELVAAISARGGSTYYADSVKGRFTISRDNAKNTVYLQMNSLKPEDTAVYYCNALYNYAEIYGRGYWGLGTQVTVSS,high polyreactivity
6,QVQLVESGGRLVQAGGSLRLSCAASGPIFAPYDMGWYRQAPGKERELVAAISRSGGSTYYADSVKGRFTISRDNAKNTVYLQMNSLKPEETPVYSCAAGLFVGFDYWGQGTQVTVTS,high polyreactivity
7,QVQLVESGGGLVQAGGSLRLSCAASGRTFVPYDMGLYRQAPGKERELVAAISSGDSTNYTDSVKGRFTISRDNAKNTVYLQMNSLKPEDTAVYYCAADLTYTMDHWGQGTQVTVSS,low polyreactivity
8,QVQLVESGGGLVQAGGSLRLSCAASGSIFYSYAMGWYRQAPGKERELVAAISWDASTYYADSVKGRFTISRDNAKNTVYLQMNSLKPEDTAVSYCNADIPYYFVYDAYDYWGQGTQVTVSS,low polyreactivity
9,QVQLVESGGGLVQAGGSLRLSCAASGRIGKYAMGWYRQAPGKERELVATISSTGTTNYADSVKGRFTISRDNAKNTVYLQMNSLKPEDTAVYYCAGRWEYVGYRRRYYRFDYWGQGTQVTVSS,high polyreactivity
10,QVQLVESGGGLVQAGGSLRLSCAASGFILRRYTMGWYRQAPGKEREFVAGISWRGGSTYYADSVKGRFTISRDNAKNTVYLQMNSLKPEDTAVYYCAAETYQLTWVLYYYWGQGTQVTVSS,high polyreactivity
11,QVQLVESGGGLVQAGGSLRLSCAASGFIFRRYTMGWYRQAPGKERELVATITRSVNTDYADSVKGRFTFSRDNAKNTVYLQMNSLKPEDTAVYYCAARKYYYFPVAYDYWGQGTQVTVSS,high polyreactivity
12,QVQLVESGGGLVQAGGSLRLSCAASGRNFGVYTMGWYRQAPGKERELVAAITSGGNTNYADSVKGRFTISRDNAKNNVYLQMNCLKPEDTAVYYCAARYVGNFYYPGHNYWGQVTQVTVSS,low polyreactivity
13,QVQLVESGGGLVQAGGSLRLSCAASGSTFDYNTMGWYRQAPGTERELVADITWRGASTYYADSVKGRFTISRDNAKNTVYLQMNSLKPEDTAVYYCAADYYSATGSYAYDYWGQGTQVTVSS,low polyreactivity
14,QVQLVESGGGLVQAGGSLRLSCAASGGNFGYYAMGWYRQAPGKEREFVAAITLSGGRTYYADSVKGRFTISRDNAKNTVYLQMNSLKPEDTAVYYCAAKGTRRGKERNYWGQGTQVTVSS,high polyreactivity
15,QVHLVESGGGLVQAGCSLRLSSSASGFTFVRNAMGWYRQAPGKERELVAAISKSGGRTYYTDSVKGRFTISRDNAKNSVYLHLNSLIPEDTAVYYCASDPVSDYYGYGYWGQGTQVTVSS,high polyreactivity
16,QVQLVESGGGFVQAGGSLRLSCAASGFIFAVNAMGWYRQAPGKERELVAAISSSGTTNYADSVKGRFTISRDNAKNTVYLQMNSLKPEDTAVYYCNKRWRDKYPQYDYWGQGTQVTVSS,low polyreactivity
17,QVQLVESGGGLVQAGGSLRLSCAASGRIFGTNAMGWYRQAPGKERELVAAISRSGGSTYYADSVKGRFTISRDNAKNTVYLQMNSLKPEDTAVYYCATDGRHTYYYWGQGTQVTVST,high polyreactivity
18,HVQLVESGGGLVQAGGSLRLSCAASGNIFVRYAMGWYRPAPGKERELVAAISSSGGRTYYADSVKGRFTISRDNAKNTVYLQMNSLKPEDTAVYYCATGRPSHNRYDYWGQGTQVTVSS,high polyreactivity
19,QVQLVESGGGLVQAGGTLRLSCAASGSTFIGNAMGWYIQAPGKERELVAAITRSGGSTFYADSVKGRFTISRDNAKNTVYLQMNSLKPEDTAVYYCAARNGAYPALKEGDYWGQGTQVTVSS,high polyreactivity
20,QVQLVESVGGLVQAGGSLRLSCAASGSIFQPYAMGWYRHAPGKEREFVAAISRSGGITYYADSVKGRFTISRDNAKNTVYLQMNSLKPEDTAVYYCATGRQVVRSYSEGDYCGQGTQVTVSS,low polyreactivity
21,QVQLVDSGGGLVQAGGSLRLSCAASGSTFYEYAMGWYRQPPGKERELVAAITSGGSTYYADSVKGRFTISRDNAKNTVYLQMNSLKPEDTAVYYCAADPRIRRGDRSTHGYDYWGQGTQVTVSS,low polyreactivity
22,QVQLVESGGGLFQAGGSLRLSCAASGRIFQHNTMGWYRQAPGKEREFVAAIRRSGGSTYYADSVKGRFTISRDNAKNTVYLQMNSLKPEDTAVFYCAARDYPTGTRRWGGGDSWGQGTQVTVSS,low polyreactivity
23,QVRLVESGGGLVQAGGSLRLSCAASGSTFVYYAMGRYRQAPGNERELVAAITSGDSTYYADSVKGRFTISRDNAKNTVYLQMNSLKPEDTAVYYCAKRISYLPVEMDYWGQGTQVSVSS,low polyreactivity
24,QVQLVESGGGLVQAGGSLRLSCAASGITFSSYTMGWYRQAPGKERELVAVISSGGSTNYADSVKGRFTISRDNAKNTVYLQMNSLKPEETAVYYCAARRSKYIPYYGKWYYRAFDYWGQGTQVSVSS,high polyreactivity
25,QVQLVESVGGLVQAGGSLRLSCSASGSIIYSYAMGWYRQAPGKERELVADITTGGGSTYYADSVKGRFTISRDNAKNTVYLQMNSLKPEDTAVYYCAAEQDTVWFLWIVDYCGQGTQVTVSS,low polyreactivity
26,QVQLVESGGGLVQARGSLRLSCAASGFIFLYNAMGWYRQAPGKERELLAAITSSGGTTYYADSVKGRFTISRDNAKNTVYLQMNSLKPEDTAVYYCAARYTGRNGGSNTPEYDYWVQGTQVTVSS,low polyreactivity
27,QVQLVESGGGLVQAGGSLRLSCAASGRIIYTNAMGWYRQAPGKERELVAAINRSGGITYYADSVKGRFTISRDNAKNTVYLQMNSLKPEDTAVYYCAKDYSWASYNHDYWGQGTQVTVSS,low polyreactivity
28,QVQLVESGGGLVQAGGSLRLSCAASGRIYGYAMGWYRQAPGKESELVAVITTSGGRTYYADSVKGRFTISRDNAKNTVYLQMNSLKPEDNAVYYCNVGKPSRRSYGTLIPAALYDSWGQGTQVTVSS,high polyreactivity
29,QVQHVESGGCLVQAGGSLRLSCAASGYTFRYYAMGWYRQAPGKERELVAAINWSGCSTYYADSVKGRFTISRDNAKNTVYLHMNSLKPEDTAVYYCAADPDGDVDIDYDYWGQGTQVTVSS,low polyreactivity
30,QVQLEESGGGLVQAGGSLRLSCAPSGYNYRKNVIGWYRQAPGKERELVAAISARGGSTYYADSVKGRFTISRDNAKNTVYLQMYSLKAEVTAVYFCNTDGYLYPYDSWGLGTQVTVSS,high polyreactivity
